# Reference: the supplement of paper PMC10266784
# B1: library; numbered along this chain (parent)
# chain: MAAAAAAAAEQQSSNGPVKKSMREKAVERRSVNKEHNSNFKAGYIPIDEDRLHKTGLRGRKGNLAICVIILLFILAVINLIITLVIWAVIRIGPNGCDSMEFHESGLLRFKQVSDMGVIHPLYKSTVGGRRNENLVITGNNQPIVFQQGTTKLSVENNKTSITSDIGMQFFDPRTQNILFSTDYETHEFHLPSGVKSLNVQKASTERITSNATSDLNIKVDGRAIVRGNEGVFIMGKTIEFHMGGNMELKAENSIILNGSVMVSTTRLPSSSSGDQLGSGDWVRYKLCMCADGTLFKVQVTSQNMGCQISDNPCGNTH
# Variants of: B1
# Assay: SGCB cell-surface expression functional score (HA stain, bin4 vs bin1, normalised to synonymous) (log10 ratio); higher = more cell-surface SGCB (functional)
# Protocol: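 Deep mutational scan of full-length human SGCB (YFP-SGCB-HA, NNN codon sublibraries A-F) delivered by lentivirus at low MOI into ADG-HEK293 cells stably expressing SGCA, SGCD and SGCG. YFP-positive cells were stained for surface HA on unpermeabilized cells and FACS-sorted into bins. The functional score is log10(frequency in high bin 4 / frequency in low bin 1), normalised per chunk so that synonymous variants have mean 0 and SD 0.5. Scores are the median over codons and over duplicate biological replicates; scores below -0.5 are called non-functional. Scale: negative means deleterious.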
row,Variant,SGCB cell-surface expression functional score (log10)
1,VAAAAAAAAEQQSSNGPVKKSMREKAVERRSVNKEHNSNFKAGYIPIDEDRLHKTGLRGRKGNLAICVIILLFILAVINLIITLVIWAVIRIGPNGCDSMEFHESGLLRFKQVSDMGVIHPLYKSTVGGRRNENLVITGNNQPIVFQQGTTKLSVENNKTSITSDIGMQFFDPRTQNILFSTDYETHEFHLPSGVKSLNVQKASTERITSNATSDLNIKVDGRAIVRGNEGVFIMGKTIEFHMGGNMELKAENSIILNGSVMVSTTRLPSSSSGDQLGSGDWVRYKLCMCADGTLFKVQVTSQNMGCQISDNPCGNTH [M1V],0.28
2,MAAAAAAAAEQQSSNGPVKKSMREKAVERRSVNKEHNSNFKAGYIPIDEDRLHKTGLRGRKGNLAICVIILLFILAVINLIITLVIWAVIRIGPNGCDSMEFHESGLLRFKQVSDMGVYHPLYKSTVGGRRNENLVITGNNQPIVFQQGTTKLSVENNKTSITSDIGMQFFDPRTQNILFSTDYETHEFHLPSGVKSLNVQKASTERITSNATSDLNIKVDGRAIVRGNEGVFIMGKTIEFHMGGNMELKAENSIILNGSVMVSTTRLPSSSSGDQLGSGDWVRYKLCMCADGTLFKVQVTSQNMGCQISDNPCGNTH [I119Y],-1.14
3,MAAAAAAAAEQQSSNGPVKKSMREKAVERRSVNKEHNSNFKAGYIPIDEDRLHKTGLRGRKGNLAICVIILLFILAVINLIITLVIWAVIRIGPNGCDSMEFHESGLLRFKQVSDMGVIHPLYKSTVGGRRNENLVITGNNQPIVFQQGTTKLSVENNKTSITSIIGMQFFDPRTQNILFSTDYETHEFHLPSGVKSLNVQKASTERITSNATSDLNIKVDGRAIVRGNEGVFIMGKTIEFHMGGNMELKAENSIILNGSVMVSTTRLPSSSSGDQLGSGDWVRYKLCMCADGTLFKVQVTSQNMGCQISDNPCGNTH [D165I],0.19
4,MAAAAAAAAEQQSSNGCVKKSMREKAVERRSVNKEHNSNFKAGYIPIDEDRLHKTGLRGRKGNLAICVIILLFILAVINLIITLVIWAVIRIGPNGCDSMEFHESGLLRFKQVSDMGVIHPLYKSTVGGRRNENLVITGNNQPIVFQQGTTKLSVENNKTSITSDIGMQFFDPRTQNILFSTDYETHEFHLPSGVKSLNVQKASTERITSNATSDLNIKVDGRAIVRGNEGVFIMGKTIEFHMGGNMELKAENSIILNGSVMVSTTRLPSSSSGDQLGSGDWVRYKLCMCADGTLFKVQVTSQNMGCQISDNPCGNTH [P17C],0.46
5,MAAAAAAAAEQQSSNGPVKKSMREKAVERRSVNKEHNSNFKAGYIPIDEDRLHKTGLRGRKGNLAICVIILLFILAVINLIITLVIWAVIRIGPNGCDSMEFHESGLLRFKQVSDMGVIHPLYKSTVGGRRNENLVITGNNQPIVFQQGTTKLSVENNKTSITSDIGMQFFDPRTQNILFSTDYETHEFHLPSGVKSLNVQKASTERITSNATSDLNIKVDGRAIVRGNEGVFIMGKTIEFHMGGNMELKAENSIILNGSVMVSTTRLPSSSSGDQCGSGDWVRYKLCMCADGTLFKVQVTSQNMGCQISDNPCGNTH [L277C],-1.31
6,MAAAAAAAAEQQSSNGPVKKSMREKAVERRSVNKEHNSAFKAGYIPIDEDRLHKTGLRGRKGNLAICVIILLFILAVINLIITLVIWAVIRIGPNGCDSMEFHESGLLRFKQVSDMGVIHPLYKSTVGGRRNENLVITGNNQPIVFQQGTTKLSVENNKTSITSDIGMQFFDPRTQNILFSTDYETHEFHLPSGVKSLNVQKASTERITSNATSDLNIKVDGRAIVRGNEGVFIMGKTIEFHMGGNMELKAENSIILNGSVMVSTTRLPSSSSGDQLGSGDWVRYKLCMCADGTLFKVQVTSQNMGCQISDNPCGNTH [N39A],-0.05
7,MAAAAAAAAEQQSSNGPVKKSMREKAVERRSVNKEHNSNFKAGYIPIDEDRLHKTGLRGRKGNLAICVIILLFILAVINLIITLVIWAVIRIGPNGCDSMEFHESGLLRFKQVSDMGVIHPLYKSTVGGRRNENLVITGNNQPIVFQQGTTKLSVENNKTSITSDIGMQFFDPRTQNILFSTDYETHEFHLPSGVKSLNVQKASTERITSNATSDLNIKVDGRAIVRGNEGVFIMGKTIEFHMGGNMILKAENSIILNGSVMVSTTRLPSSSSGDQLGSGDWVRYKLCMCADGTLFKVQVTSQNMGCQISDNPCGNTH [E248I],0.78
8,MAAAAAAAAEQQSSNGPVKKSMREKAVERRSVNKEHNSNFKAGYIPIDEDRLHKTGLRGRKGNLAICVIILLFILAVINLIITLVIWAVIRIGPNGCDSMEFHESGLLRFKQVSDMGVIHPLYKSTVGGRRNENLVITGNNQPIVFQQGTTKLSVENNKTSITSDIGMQFFDPRTQNILFSTDYETHEFHLPSGVKSLNVQKASTERITSNATSDLNIKVDSRAIVRGNEGVFIMGKTIEFHMGGNMELKAENSIILNGSVMVSTTRLPSSSSGDQLGSGDWVRYKLCMCADGTLFKVQVTSQNMGCQISDNPCGNTH [G222S],0.06
9,MAHAAAAAAEQQSSNGPVKKSMREKAVERRSVNKEHNSNFKAGYIPIDEDRLHKTGLRGRKGNLAICVIILLFILAVINLIITLVIWAVIRIGPNGCDSMEFHESGLLRFKQVSDMGVIHPLYKSTVGGRRNENLVITGNNQPIVFQQGTTKLSVENNKTSITSDIGMQFFDPRTQNILFSTDYETHEFHLPSGVKSLNVQKASTERITSNATSDLNIKVDGRAIVRGNEGVFIMGKTIEFHMGGNMELKAENSIILNGSVMVSTTRLPSSSSGDQLGSGDWVRYKLCMCADGTLFKVQVTSQNMGCQISDNPCGNTH [A3H],0.3
10,MAAAAAAAAEQQSSNGPVKKSMREKAVERRSVNKEHNSNFKAGYIPIDEDRLHKTGLRGRKGNLAIWVIILLFILAVINLIITLVIWAVIRIGPNGCDSMEFHESGLLRFKQVSDMGVIHPLYKSTVGGRRNENLVITGNNQPIVFQQGTTKLSVENNKTSITSDIGMQFFDPRTQNILFSTDYETHEFHLPSGVKSLNVQKASTERITSNATSDLNIKVDGRAIVRGNEGVFIMGKTIEFHMGGNMELKAENSIILNGSVMVSTTRLPSSSSGDQLGSGDWVRYKLCMCADGTLFKVQVTSQNMGCQISDNPCGNTH [C67W],0.43
